One assay addresses T1, ovalbumin (UniProt P01012 2-386).
T1 construct: Irrelevant antigen in the ELISA
T1 sequence (looked up): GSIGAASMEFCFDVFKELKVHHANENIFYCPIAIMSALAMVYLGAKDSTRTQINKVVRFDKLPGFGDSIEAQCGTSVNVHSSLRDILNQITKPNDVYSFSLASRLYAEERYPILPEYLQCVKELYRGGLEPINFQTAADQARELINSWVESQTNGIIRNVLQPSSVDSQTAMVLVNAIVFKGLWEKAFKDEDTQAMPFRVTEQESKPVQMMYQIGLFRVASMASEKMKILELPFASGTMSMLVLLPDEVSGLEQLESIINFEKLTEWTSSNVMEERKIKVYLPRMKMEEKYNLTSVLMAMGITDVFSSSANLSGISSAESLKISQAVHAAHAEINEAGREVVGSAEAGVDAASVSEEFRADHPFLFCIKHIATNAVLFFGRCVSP
The assay is described as follows: ELISA on coated antigens (data not shown).

The next assay has as its target T2, bovine serum albumin (bovine, UniProt P02769 25-607).
T2 construct: Irrelevant antigen in the ELISA; also called BSA
The experiment in a line: ELISA on coated antigens (data not shown).

T2 sequence (P02769 25-607 limits assumed): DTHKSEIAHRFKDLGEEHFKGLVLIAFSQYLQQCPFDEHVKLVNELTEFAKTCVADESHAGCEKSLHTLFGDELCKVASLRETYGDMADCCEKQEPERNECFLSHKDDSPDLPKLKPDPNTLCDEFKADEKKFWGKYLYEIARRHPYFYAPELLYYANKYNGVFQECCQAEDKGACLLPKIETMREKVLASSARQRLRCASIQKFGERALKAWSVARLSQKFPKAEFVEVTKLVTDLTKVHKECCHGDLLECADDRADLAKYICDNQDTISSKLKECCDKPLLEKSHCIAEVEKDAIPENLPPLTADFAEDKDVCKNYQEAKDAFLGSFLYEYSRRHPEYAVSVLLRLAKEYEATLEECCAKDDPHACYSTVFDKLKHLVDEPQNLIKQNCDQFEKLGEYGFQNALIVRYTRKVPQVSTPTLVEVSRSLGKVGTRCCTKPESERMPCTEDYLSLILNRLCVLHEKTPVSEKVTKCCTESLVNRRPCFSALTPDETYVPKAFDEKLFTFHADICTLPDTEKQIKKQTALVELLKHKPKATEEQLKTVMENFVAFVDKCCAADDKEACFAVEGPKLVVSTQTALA
Experimental for bovine serum albumin: (§1) ELISA wells (Costar) were coated overnight at 4° C. with 50 μl of antigen (1-10 μg/ml) in 0.1 M bicarbonate buffer, pH 8.6. DNA in PBS was dried on the ELISA wells at 37° C. The wells were washed twice with PBS, blocked by filling the wells with 3% BSA in PBS for 1 h at 37° C., and incubated with human Fab samples or intact human IgM antibody for 2 h at 37° C. Plates were washed 10 times with PBS-Tween and bound Fab was detected with alkaline phosphatase (AP) labeled goat anti-human IgG F(ab′)₂ (Pierce Chemical Co, Rockford, Ill.) diluted 500 fold in PBS or alkaline phosphatase-labeled rabbit anti-human κ-chain (Sigma) diluted 1000 fold in PBS. Bound antibody was visualized with para-nitrophenylphosphate (Sigma)(1 mg/ml, 1 mM MgCl₂, 10% (w/v) diethanolamine, pH 9.6) and read at 405 nm.
Experimental for ovalbumin: as §1

B1: recombinant B9165 Fab (Fab, V domains shown)
VH: GAEVKKPGASVKVSCKASDYTFSSYYMHWVRQAPGQGLEWMGIINPSGGSTSYAQKFQGRVTMTRDTSTNTVYMELSSLRSEDTAVYYCARDQVVVAATLSNYGMDVWGQGTTVTVSS
VL: ELTQSPGTLSLSPGERATLSCRASQSVSSSYLAWYQQKPGQAPRLLIYDASNRATGIPARFSGSGSGTDFTLTISSLEPEDFAVYYCQQGTNWGIAFGQGTRLDIKR
notes: Soluble Fab (mu Fd region plus kappa light chain) cloned from hybridoma B9165 by phage display in pComb3 and expressed in E. coli; also called cloned B9165 Fab; Fab of COU-1
With B1, the binding result with ovalbumin and in the assay with bovine serum albumin was “no binding” throughout.

(Values after patent US20050048070A1 (published 2005).)
